This is an account of results in the RNAGym collection of RNA variant scans (doi:10.7554/elife.90254).

The chains are these.
B1: LINE1-mini (parent)
chain: GGCAGAGCUCAACACAGCGUGGCAAAGUGGCUGUGGCUAGACUGCC

The variants in the data set derive from B1. The experiment in a line: self-cleavage, relative activity (ratio to wild type); higher = more cleavage; in vitro, sequencing; the parent is a self-cleaving ribozyme.
With GGCAGAGCUCAACACAGCGUUGCAAAGUGGCUGUGGCUAGACGGCC [G21U U43G], the self-cleavage is 0.07. As for GGCAGAGCUCAACACAGCGUUGCAAAGUGGCUGUGGCUAGACCGCC [G21U U43C], the self-cleavage amounted to 0.2. The value for GGCAGAGCUCAACACAGCGUGACAAAGUGGCUGUGGCAAGACUGCC [G22A U38A] was 0.33. As for GGCAGAGCUCAACACAGCGUGACAAAGUGGCUGUGGCGAGACUGCC [G22A U38G], the self-cleavage was 0.01. Regarding GGCAGAGCUCAACACAGCGUGACAAAGUGGCUGUGGCCAGACUGCC [G22A U38C], the self-cleavage was determined as 0.68. The value for GGCAGAGCUCAACACAGCGUGACAAAGUGGCUGUGGAUAGACUGCC [G22A C37A] was 0.04. The result for GGCAGAGCUCAACACAGCGUGACAAAGUGGCUGUGGGUAGACUGCC [G22A C37G] reads 0.03; that for GGCAGAGCUCAACACAGCGUGACAAAGUGGCUGUGGUUAGACUGCC [G22A C37U], 0.05. The result for GGCAGAGCUCAACACAGCGUUGCAAAGCGGCUGUGGCUAGACUGCC [G21U U28C] reads 0.92; that for GGCAGAGCUCAACACAGCGUUGCAAAGAGGCUGUGGCUAGACUGCC [G21U U28A], 0.51. As to GGCAGAGCUCAACACAGCGUUGCAAAGGGGCUGUGGCUAGACUGCC [G21U U28G], the self-cleavage was 0.52.

With GGCAGAGCUCAACACAGCGUUGCAAAGUGGCUGUAGCUAGACUGCC [G21U G35A], the self-cleavage came out at 0.16. The value for GGCAGAGCUCAACACAGCGUUGCAAAGUGGCUGUCGCUAGACUGCC [G21U G35C] was 0.13; that for GGCAGAGCUCAACACAGCGUUGCAAAGUGGCUGUUGCUAGACUGCC [G21U G35U] was 0.22; that for GGCAGAGCUCAACACAGCGUGACAAAGUGGUUGUGGCUAGACUGCC [G22A C31U] was 0.49. On to GGCAGAGCUCAACACAGCGUGACAAAGUGGAUGUGGCUAGACUGCC [G22A C31A], for which the self-cleavage is 0.2. The result for GGCAGAGCUCAACACAGCGUGACAAAGUGGGUGUGGCUAGACUGCC [G22A C31G] reads 0.1; that for GGCAGAGCUCAACACAGCGUUGCAAAGUGGCUGUGGCUAGACUUCC [G21U G44U], 0.5; that for GGCAGAGCUCAACACAGCGUUGCAAAGUGGCUGUGGCUAGACUACC [G21U G44A], 0.53.

Turning to GGCAGAGCUCAACACAGCGUUGCAAAGUGGCUGUGGCUAGACUCCC [G21U G44C], the self-cleavage was 0.25. The value for GGCAGAGCUCAACACAGCGUGACAACGUGGCUGUGGCUAGACUGCC [G22A A26C] was 0.79; that for GGCAGAGCUCAACACAGCGUGACAAGGUGGCUGUGGCUAGACUGCC [G22A A26G] was 1.31.

With GGCAGAGCUCAACACAGCGUGACAAUGUGGCUGUGGCUAGACUGCC [G22A A26U], the self-cleavage stood at 0.76. GGCAGAGCUCAACACAGCGUUGCAAAGUGGCUGAGGCUAGACUGCC [G21U U34A]: the self-cleavage came to 0.12. Consider GGCAGAGCUCAACACAGCGUUGCAAAGUGGCUGGGGCUAGACUGCC [G21U U34G], for which the self-cleavage was 0.34. The result for GGCAGAGCUCAACACAGCGUUGCAAAGUGGCUGCGGCUAGACUGCC [G21U U34C] reads 0.27; that for GGCAGAGCUCAACACAGCGUGACAAAGUGGCUGUGGCUAAACUGCC [G22A G40A], 0.08. For GGCAGAGCUCAACACAGCGUGACAAAGUGGCUGUGGCUACACUGCC [G22A G40C], the self-cleavage amounted to 0.09. The value for GGCAGAGCUCAACACAGCGUGACAAAGUGGCUGUGGCUAUACUGCC [G22A G40U] was 0.12; that for GGCAGAGCUCAACACAGCGUUGCAAAGUGGCUUUGGCUAGACUGCC [G21U G33U] was 0.17; that for GGCAGAGCUCAACACAGCGUGACAAAGUGACUGUGGCUAGACUGCC [G22A G30A] was 1.24. The result for GGCAGAGCUCAACACAGCGUGACAAAGUGUCUGUGGCUAGACUGCC [G22A G30U] reads 0.96. With GGCAGAGCUCAACACAGCGUUGCAAAGUGGCGGUGGCUAGACUGCC [G21U U32G], the self-cleavage was determined as 0.26. GGCAGAGCUCAACACAGCGUUGCAAAGUGGCAGUGGCUAGACUGCC [G21U U32A]: the self-cleavage was found to be 0.12.

For the variant GGCAGAGCUCAACACAGCGUUGCAAAGUGGCCGUGGCUAGACUGCC [G21U U32C], the self-cleavage was found to be 0.68. The value for GGCAGAGCUCAACACAGCGUGCCAGAGUGGCUGUGGCUAGACUGCC [G22C A25G] was 1.07; that for GGCAGAGCUCAACACAGCGUGCCAUAGUGGCUGUGGCUAGACUGCC [G22C A25U] was 1.23. The result for GGCAGAGCUCAACACAGCGUGCCACAGUGGCUGUGGCUAGACUGCC [G22C A25C] reads 0.31; that for GGCAGAGCUCAACACAGCGUGACAAAGUGGCUGUGGCUUGACUGCC [G22A A39U], 0.5; that for GGCAGAGCUCAACACAGCGUGACAAAGUGGCUGUGGCUCGACUGCC [G22A A39C], 0.09.

Regarding GGCAGAGCUCAACACAGCGUGACAAAGUGGCUGUGGCUGGACUGCC [G22A A39G], the self-cleavage is 0.17. As for GGCAGAGCUCAACACAGCGUGACAAAGUUGCUGUGGCUAGACUGCC [G22A G29U], the self-cleavage was found to be 0.65. Turning to GGCAGAGCUCAACACAGCGUGACAAAGUCGCUGUGGCUAGACUGCC [G22A G29C], the self-cleavage is 0.21. Take GGCAGAGCUCAACACAGCGUGACAAAGUAGCUGUGGCUAGACUGCC [G22A G29A]: the self-cleavage stood at 0.27. GGCAGAGCUCAACACAGCGUGACAAAGUGGCUGUUGCUAGACUGCC [G22A G35U]: the self-cleavage amounted to 0.14. The value for GGCAGAGCUCAACACAGCGUGACAAAGUGGCUGUAGCUAGACUGCC [G22A G35A] was 0.23; that for GGCAGAGCUCAACACAGCGUGACAAAGUGGCUGUCGCUAGACUGCC [G22A G35C] was 0.12.

With GGCAGAGCUCAACACAGCGUGCCAACGUGGCUGUGGCUAGACUGCC [G22C A26C], the self-cleavage was 2.46. For GGCAGAGCUCAACACAGCGUGCCAAGGUGGCUGUGGCUAGACUGCC [G22C A26G], the self-cleavage was found to be 0.87. Take GGCAGAGCUCAACACAGCGUGCCAAUGUGGCUGUGGCUAGACUGCC [G22C A26U]: the self-cleavage came out at 0.82. The value for GGCAGAGCUCAACACAGCGUUGCAAAGUGGCUGUGGCGAGACUGCC [G21U U38G] was 0.04; that for GGCAGAGCUCAACACAGCGUUGCAAAGUGGCUGUGGCCAGACUGCC [G21U U38C] was 0.9; that for GGCAGAGCUCAACACAGCGUUGCAAAGUGGCUGUGGCAAGACUGCC [G21U U38A] was 0.42.

As for GGCAGAGCUCAACACAGCGUGACAAACUGGCUGUGGCUAGACUGCC [G22A G27C], the self-cleavage came to 0.9. The value for GGCAGAGCUCAACACAGCGUGACAAAUUGGCUGUGGCUAGACUGCC [G22A G27U] was 0.75. Take GGCAGAGCUCAACACAGCGUGACAAAAUGGCUGUGGCUAGACUGCC [G22A G27A]: the self-cleavage stood at 0.51.
